We go through one molecule from article PMC4118823, “Structural and biophysical analysis of interactions between cod and human uracil-DNA N-glycosylase (UNG) and UNG inhibitor (Ugi)” (Acta Crystallographica Section D: Biological Crystallography, 2014).

The target in test [1] is T1, human uracil-DNA N-glycosylase (human, UniProt P13051-2 1-304).
T1 construct: Human uracil-DNA N-glycosylase (UNG), recombinant; also called hUNG; human UNG; source: expression and purification as described previously (Assefa et al., 2012)
The test is described as follows: ITC; Ugi (267-667 µM, syringe) injected into UNG (20-50 µM, cell); 25°C; 20 mM sodium phosphate pH 7.5, 200 mM sodium chloride; single-site binding model. To be noted: both partners purified.

Test [2] addresses T2, Uracil-DNA N-glycosylase from Atlantic cod (Atlantic cod, UniProt Q9I983 82-301).
T2 construct: Catalytic domain of uracil-DNA N-glycosylase (UNG) from Atlantic cod; Lanes et al., 2002). numbers count on: hUNG numbering; also called cUNG; cod UNG; source: recombinantly produced in E. coli; expression and purification as described previously (Assefa et al., 2012)
The description is as above. To be noted: both partners purified.

T2 sequence (Q9I983 entry or part of it): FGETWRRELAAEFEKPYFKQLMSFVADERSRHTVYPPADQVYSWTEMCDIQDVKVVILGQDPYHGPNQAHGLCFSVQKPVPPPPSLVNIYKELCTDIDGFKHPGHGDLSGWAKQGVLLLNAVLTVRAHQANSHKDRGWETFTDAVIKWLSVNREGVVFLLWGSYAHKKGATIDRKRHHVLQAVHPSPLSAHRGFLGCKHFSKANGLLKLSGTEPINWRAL
T1 sequence (P13051 94-313): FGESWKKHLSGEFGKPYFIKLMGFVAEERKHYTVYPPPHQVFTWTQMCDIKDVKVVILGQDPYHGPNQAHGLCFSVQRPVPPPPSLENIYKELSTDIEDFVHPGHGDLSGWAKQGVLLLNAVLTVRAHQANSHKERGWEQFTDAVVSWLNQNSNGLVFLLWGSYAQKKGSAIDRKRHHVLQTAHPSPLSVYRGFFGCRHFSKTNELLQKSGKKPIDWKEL

B1: uracil-DNA N-glycosylase inhibitor (Ugi) (natural protein)
chain: MTNLSDIIEKETGKQLVIQESILMLPEEVEEVIGNKPESDILVHTAYDESTDENVMLLTSDAPEYKPWALVIQDSNGENKIKML
notes: expressed from a recombinant pRSETb plasmid provided by T. Géoui; source: E. coli BL21 (DE3) pLysS, purified (heating to 95°C, Q-Sepharose, Superdex 75)
As usually defined, the Kd is the equilibrium constant for the complex coming apart. As a reminder, the stoichiometry N is the number of molecules, sites or subunits per partner or assembly. In the case of B1, in test [1], the Ka turned out to be 1.5e+06 M⁻¹, the dissociation constant (Kd) was 685 nM, the dH is -2.25 kcal/mol and the “stoichiometry N” value came to 0.921. In test [2], the Ka was found to be 3.25e+07 M⁻¹, the Kd is 31 nM, the dH was -6 kcal/mol and the “stoichiometry N” value worked out at 0.994.
